Results as given in patent US20240238459.

T1: substrate sequence FVQWFSKFLGK (SEQ ID NO:3)
T1 sequence: FVQWFSKFLGK

B1: C1S (enzyme, UniProt P09871 16-688, looked up, species assumed)
Complement C1s subcomponent: EPTMYGEILSPNYPQAYPSEVEKSWDIEVPEGYGIHLYFTHLDIELSENCAYDSVQIISGDTEEGRLCGQRSSNNPHSPIVEEFQVPYNKLQVIFKSDFSNEERFTGFAAYYVATDINECTDFVDVPCSHFCNNFIGGYFCSCPPEYFLHDDMKNCGVNCSGDVFTALIGEIASPNYPKPYPENSRCEYQIRLEKGFQVVVTLRREDFDVEAADSAGNCLDSLVFVAGDRQFGPYCGHGFPGPLNIETKSNALDIIFQTDLTGQKKGWKLRYHGDPMPCPKEDTPNSVWEPAKAKYVFRDVVQITCLDGFEVVEGRVGATSFYSTCQSNGKWSNSKLKCQPVDCGIPESIENGKVEDPESTLFGSVIRYTCEEPYYYMENGGGGEYHCAGNGSWVNEVLGPELPKCVPVCGVPREPFEEKQRIIGGSDADIKNFPWQVFFDNPWAGGALINEYWVLTAAHVVEGNREPTMYVGSTSVQTSRLAKSKMLTPEHVFIHPGWKLLEVPEGRTNFDNDIALVRLKDPVKMGPTVSPICLPGTSSDYNLMDGDLGLISGWGRTEKRDRAVRLKAARLPVAPLRKCKEVKVEKPTADAEAYVFTPNMICAGGEKGMDSCKGDSGGAFAVQDPNDKTKFYAAGLVSWGPQCGTYGLYTRVKNYVDWIMKTMQENSTPRED
B2: granzyme K (enzyme, UniProt P49863 27-264, looked up, species assumed)
Granzyme K: IIGGKEVSPHSRPFMASIQYGGHHVCGGVLIDPQWVLTAAHCQYRFTKGQSPTVVLGAHSLSKNEASKQTLEIKKFIPFSRVTSDPQSNDIMLVKLQTAAKLNKHVKMLHIRSKTSLRSGTKCKVTGWGATDPDSLRPSDTLREVTVTVLSRKLCNSQSYYNGDPFITKDMVCAGDAKGQKDSCKGDSGGPLICKGVFHAIVSGGHECGVATKPGIYTLLTKKYQTWIKSNLVPPHTN

Tested on: T1, substrate sequence FVQWFSKFLGK (SEQ ID NO:3)

Protein	protease specificity (cleavage activity; enzyme 5 nM, substrate 60 µM)
B1	the substrate sequence is highly specific for granzyme B compared to the other proteases tested
B2	the substrate sequence is highly specific for granzyme B compared to the other proteases tested
